Patent US20260116968A1 (CELLDEX THERAPEUTICS, published 2026)
Residue numbers refer to the chain shown, from its start.

What was measured:
[1] = target: T1, human CD40 expressed on the cell surface (Raji cells, Ramos cells, human PBMC B cells, luciferase reporter … (human, UniProt P25942 21-277)); assay: flow cytometry on Raji and Ramos cells
T1 construct: also called CD40 on cells expressing human CD40
Experimental: Antibodies from Example 1 were tested for binding to human cell lines expressing human CD40 on their surface. […] After 20 minutes, the cells were washed with PBS containing 0.1% BSA and 0.05% NaN3 (PBA) and the bound antibodies were detected by incubating the cells with a PE labeled goat anti-human IgG Fc-specific probe. The excess probe was washed from the cells with PBA and the cell associated fluorescence was determined by analysis using a FACSCanto II™ instrument (BD Biosciences, NJ, USA) according to the manufacturer's directions.

[2] = target: T2, kappa-sCD40(1-94)-Flag mutant fragment B (multiple mutations of residues 13-15) (human, UniProt P25942 21-114); assay: ELISA, kappa-sCD40-Flag captured by anti-Flag, anti-human IgG Fc-HRP detection
T2 construct: also called B (13-15); not shown: The N-terminal human kappa light chain and the C-terminal Flag tag
T2 chain: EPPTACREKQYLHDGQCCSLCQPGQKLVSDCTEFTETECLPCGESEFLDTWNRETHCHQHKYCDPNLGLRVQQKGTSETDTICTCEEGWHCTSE
Experimental: (§1) 1 μg/ml of purified kappa-sCD40-Flag fusion proteins or CHO cell supernatants containing the sCD40 fusion proteins were captured to microtiter plates that were pre-coated with 5 μg/ml mouse anti-Flag antibody (Sigma) in PBS and blocked with 5% bovine serum albumin in PBS. Following incubation with the CD40 antibody, the microplates were washed with PBS/Tween, and incubated with a goat anti-human IgG Fc polyclonal reagent conjugated to horseradish peroxidase. After washing, the plates were developed with HRP substrate, and analyzed at OD 450-650 using a microtiter plate reader. An ELISA with a goat anti-human IgG Fab2-HRP to measure kappa chain binding was carried out in parallel to validate the sCD40 fusion protein expression from different transfections.

[3] = target: T3, kappa-sCD40(1-94)-Flag mutant fragment C (multiple mutations of residues 25, 26, 28 and 30) (human, UniProt P25942 21-114); assay: as above
T3 construct: also called C (25, 26, 28, 30); not shown: The N-terminal human kappa light chain and the C-terminal Flag tag
T3 chain: T2 chain with H13I, D14N, G15S, Q25S, K26R, V28T, D30H
Experimental: as §1

[4] = target: T2, kappa-sCD40(1-94)-Flag mutant fragment …; assay: ELISA, kappa-sCD40-Flag (~2 ug/ml) captured by anti-Flag, anti-human IgG Fc-HRP detection
Experimental: as §1, with “containing” for “1 μg/ml of purified kappa-sCD40-Flag fusion proteins or CHO cell supernatants containing”

[5] = target: T3, kappa-sCD40(1-94)-Flag mutant fragment …; assay: as above
Experimental: as §1, with “containing” for “1 μg/ml of purified kappa-sCD40-Flag fusion proteins or CHO cell supernatants containing”

T1 sequence (P25942 21-277 limits assumed): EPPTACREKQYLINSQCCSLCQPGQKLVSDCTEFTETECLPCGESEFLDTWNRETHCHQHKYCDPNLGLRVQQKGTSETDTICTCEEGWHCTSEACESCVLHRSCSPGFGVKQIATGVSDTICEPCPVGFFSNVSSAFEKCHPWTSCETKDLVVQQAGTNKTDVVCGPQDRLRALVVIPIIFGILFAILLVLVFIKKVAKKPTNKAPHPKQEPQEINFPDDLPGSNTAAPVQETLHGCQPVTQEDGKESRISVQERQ

B1: anti-CD40 human monoclonal antibody 1B4 (antibody, human IgG2, V domains shown)
VH: EVQLLESGGGLVQPGGSLRLSCAASGFTFSSYAMTWVRQVPGKGLEWVSGITGSGANTFYTDSVKGRFTISRDNSNNSLYLQMNSLRADDTAVYYCAKRNGGSYYYYYGMDVWGQGTTVTVSS
VL: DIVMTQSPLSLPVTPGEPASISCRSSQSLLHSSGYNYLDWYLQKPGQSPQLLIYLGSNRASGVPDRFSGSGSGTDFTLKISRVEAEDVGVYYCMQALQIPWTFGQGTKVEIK
notes: Human IgG2
[1]
  binding result: binds

B2: anti-CD40 human monoclonal antibody 3B6 (antibody, human IgG2, V domains shown)
VH: EVQLLESGGGLVQPGGSLRLSCAASGFTFSSYAMSWVRQAPGKGLEWVSGITGTGGSTYYADSVKGRFTISRDNSKNTLYVQMNSLRAEDTAVYYCAKRAGGSFYYYYGMDVWGQGTTVTVSS
VL: DIVMTQSPLSLPVTPGEPASISCRSSQSLLHSTGYNYLDWYLQKPGQSPQLLIYLGSNRASGVPDRFNGSGSGTDFTLKISRVEAEDFGVYYCMQALQTPWTFGHGTKVEIK
notes: Human IgG2
[1]
  binding result: binds

B3: anti-CD40 human monoclonal antibody 6H6 (antibody, human IgG2, V domains shown)
VH: QVQLVESGGGVVQPGRSLRFSCAASGFTLSSYGMHWVRQAPGKGLEWVAVIWDDGSNKYYADSVKGRFTISRDNSKNTLYLQMNSLRAEDTAVYYCARAGGSGRYYNYFDYWGQGTLVTVSS
VL: EIVMTQSPATLSVSPGERATLSCRASQSVRSNLAWYQQKPGQAPRLLIYGASTRATGIPARFSGSGSGTDFTLTISSLQSEDFAVYYCQQHNNWLTFGGGTKVEIK
notes: Human IgG2
[1]
  binding result: binds

B4: anti-CD40 human monoclonal antibody 3C3 (antibody, human IgG2, kappa, V domains shown)
VH: QVQLVESGGGVVQPGRSLRLSCAGSGFIFSRYGMYWVRQAPGKGLEWVAVIWYDGSYKYYADSVKGRFTISRDNSKNTLYLQMNSLRAEDTAVYYCARESPWYYFDYWGQGTLVTVSS
VL: DIQMTQSPSSLSASVGDRVTITCRASQGISNYLAWYQQKPGKVPKLLIYAASTLQSGVPSRFSGSGSGTDFTLTISSLQPEDVATYYCQKYKSAPFTFGPGTKVDIKR
notes: Full chains with leader removed; human IgG2 constant domain with C-terminal lysine removed; also called anti-CD40 mAb 3C3; CD40 antibody 3C3
[2]
  Average OD: 2.03 OD 450-650
[3]
  Average OD: 1.49 OD 450-650
[4]
  OD: 2.38 OD 450-650
[5]
  OD: 2.02 OD 450-650
